Assay results as given in article PMC10675845.

Tests used:
Test in all cases: single-cell, single-molecule pull-down
[1] = molecular target: GFP::CDC-42 (C. elegans) (UniProt Q05062)
[2] = molecular target: GFP::CDC-42(S71A) (C. elegans) (UniProt Q05062)
[3] = molecular target: GFP::CDC-42(S71E) (C. elegans) (UniProt Q05062)

For “HaloTag::aPKC (from UniProt Q19266 1-597) (enzyme)”, the koff [1] was 0.057 s⁻¹, the koff [2] was 0.057 s⁻¹ and the koff [3] was 0.099 s⁻¹.
